The series deals with the molecule itself. Kind of series: cross-linking; in vitro cross-link (BS3 or DSP) of purified protein in the presence of calcium; densitometry after DSP.

B1: hippocalcin(A190T) (natural protein)
chain: not shown
notes: human hippocalcin (HPCA) with the dystonia-causing mutation A190T, in pGEX-6P1; unmyristoylated; Mutation found homozygous in DYT2 dystonia patients; also called HPCA A190T; A190T mutant; source: E. coli BL21(DE3) STAR, purified (GST resin, PreScission cleavage, Superdex 200); not shown: GST, N-terminal, cleaved
With B1, the binding result was “binds”.

B2: hippocalcin(T71N) (natural protein)
chain: not shown
notes: human hippocalcin (HPCA) with the dystonia-causing mutation T71N, in pGEX-6P1; unmyristoylated; Mutation found homozygous in DYT2 dystonia patients; also called HPCA T71N; T71N mutant; source: E. coli BL21(DE3) STAR, purified (GST resin, PreScission cleavage, Superdex 200); not shown: GST, N-terminal, cleaved
Take B2: the binding result is recorded as “binds”.

The values above are taken from article PMC5886089, “Biophysical and functional characterization of hippocalcin mutants responsible for human dystonia” (Human Molecular Genetics, 2017).
